Test results from patent US20200277401A1 (PANGEN BIOTECH, published 2020).

Target: T1, recombinant coagulation factor VIII protein (Homo sapiens (Human), UniProt P00451 20-2351)
T1 construct: Recombinant protein isolated from a cell culture solution; also called recombinant coagulation factor FVIII; FVIII
T1 sequence: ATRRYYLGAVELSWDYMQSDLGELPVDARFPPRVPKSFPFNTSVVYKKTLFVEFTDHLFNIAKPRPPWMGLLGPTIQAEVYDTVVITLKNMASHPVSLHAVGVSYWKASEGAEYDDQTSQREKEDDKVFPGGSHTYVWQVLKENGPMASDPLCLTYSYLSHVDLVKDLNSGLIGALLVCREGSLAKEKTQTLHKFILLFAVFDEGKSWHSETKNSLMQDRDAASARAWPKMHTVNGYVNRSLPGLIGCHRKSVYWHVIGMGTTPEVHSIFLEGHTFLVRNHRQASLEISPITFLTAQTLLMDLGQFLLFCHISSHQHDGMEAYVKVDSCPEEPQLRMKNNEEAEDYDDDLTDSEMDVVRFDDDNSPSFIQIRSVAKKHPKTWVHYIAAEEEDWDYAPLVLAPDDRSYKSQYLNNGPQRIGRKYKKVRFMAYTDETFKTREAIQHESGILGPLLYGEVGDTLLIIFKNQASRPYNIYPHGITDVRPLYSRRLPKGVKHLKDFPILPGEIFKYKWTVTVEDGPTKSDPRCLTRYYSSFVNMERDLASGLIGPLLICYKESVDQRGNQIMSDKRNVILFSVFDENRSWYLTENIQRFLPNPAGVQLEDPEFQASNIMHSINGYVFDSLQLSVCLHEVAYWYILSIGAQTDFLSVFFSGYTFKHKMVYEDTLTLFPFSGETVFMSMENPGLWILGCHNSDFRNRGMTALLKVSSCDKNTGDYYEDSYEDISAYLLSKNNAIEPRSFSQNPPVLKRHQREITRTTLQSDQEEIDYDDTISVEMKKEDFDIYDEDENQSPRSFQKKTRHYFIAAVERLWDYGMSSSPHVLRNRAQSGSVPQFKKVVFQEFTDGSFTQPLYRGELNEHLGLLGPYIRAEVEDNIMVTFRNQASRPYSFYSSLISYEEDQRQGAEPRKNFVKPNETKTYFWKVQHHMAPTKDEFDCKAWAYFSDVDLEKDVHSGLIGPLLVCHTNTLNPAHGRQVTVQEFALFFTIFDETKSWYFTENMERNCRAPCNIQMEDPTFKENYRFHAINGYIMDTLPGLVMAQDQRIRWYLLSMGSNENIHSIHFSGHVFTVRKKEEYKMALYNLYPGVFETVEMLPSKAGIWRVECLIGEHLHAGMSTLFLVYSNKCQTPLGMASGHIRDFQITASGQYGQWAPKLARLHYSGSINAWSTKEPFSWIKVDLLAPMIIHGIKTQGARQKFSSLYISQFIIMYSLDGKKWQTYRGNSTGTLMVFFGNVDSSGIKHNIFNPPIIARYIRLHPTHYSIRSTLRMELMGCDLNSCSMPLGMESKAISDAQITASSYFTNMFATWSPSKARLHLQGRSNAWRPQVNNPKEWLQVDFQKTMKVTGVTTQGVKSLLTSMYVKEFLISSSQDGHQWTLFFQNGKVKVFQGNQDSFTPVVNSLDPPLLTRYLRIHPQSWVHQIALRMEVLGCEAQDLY
Assay: SPR, Biacore T200, FVIII immobilised on CM5 chip, antibody as analyte, 1:1 model
Procedure: The kinetic affinity (Ka, Kd, KD) between the purified antibody protein and the recombinant coagulation factor FVIII protein through antigen-antibody reaction was measured by a SPR (surface plasmon resonance) method.
The CM5 chip was mounted on a Biacore T200 instrument, and the recombinant coagulation factor FVIII protein as a ligand was diluted in a 10 mM sodium acetate buffer (pH 5.0) and injected into a sample channel for 10 minutes for immobilization. The purified antibody protein, as the analyte, was prepared at a concentration of 2 μM by diluting with a buffer and was then serially diluted to ten concentrations (0.0039, 0.0078, 0.015, 0.031, 0.062, 0.125, 0.25, 0.5, 1, 2 μM). Association and dissociation times were set to 3 minutes and 4 minutes, respectively, and association and dissociation were measured.
BIAevaluation analysis software was used to analyze the kinetic affinity of the purified antibody protein and the recombinant coagulation factor FVIII protein. The association force, dissociation force and dissociation constant were calculated as follows by applying ten concentrations of association/dissociation data to a 1:1 kinetic binding model (A+B↔AB).

- Kd: 55.3 nM
- koff: 0.00068 s⁻¹
- kon: 12300 M⁻¹ s⁻¹
B1: anti-FVIII antibody (purified antibody protein produced by the ADBA1013-14 CHO cell line from the heavy and light chain genes of hybridoma clone 3F6-2-5) (antibody, mouse IgG1, V domains shown)
VH: EVKIEESGGGLVQPGGSMKLSCAASGFTFSDAWMDWVRQSPEKGLEWVAEIRSKAKNHATNYAESVKGRFTISRDDSKSRVYLQMNTLRAEDTGIYYCTNYHFWGPGTTLTVS
VL: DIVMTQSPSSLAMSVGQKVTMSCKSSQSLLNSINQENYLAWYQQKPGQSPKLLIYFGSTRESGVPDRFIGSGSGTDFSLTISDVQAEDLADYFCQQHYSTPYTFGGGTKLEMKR
modifications: N-glycan on Asparagine No. 288 of the heavy chain
notes: The full chains are in the listing under one of these numberings; The hybridoma antibody 3F6-2-5 and the recombinant CHO product are treated as one molecule (same genes); also called purified anti-FVIII antibody protein; anti-coagulation factor VIII antibody
